± gives the standard deviation.

We go through 37 sequences from the supplement of paper PMC10567573.

A short description of the series: protein stability index of a GFP-peptide fusion (GPS, HEK-293T) (PSI 1-6); higher = more stable. Particulars: c terminus: a fixed tail appended.
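Note: 24-mer peptide tiles fused after GFP, lentivirally expressed, FACS-sorted into six equal bins by GFP/DsRed ratio, decoded by Illumina sequencing, PSI is the read-weighted mean bin number.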

On to NSLAALDLSGIQTSDAAFLTQWKD [ZER1], for which the protein stability index was found to be 4.25 ± 0.2 (treatment: DMSO) and 4.29 ± 0.23 (treatment: MLN4924 1 uM, 8 h).
ATRGVPAKRLLDADDAAAVAAKCP [TRIB1] came in with a protein stability index (treatment: DMSO) of 4.39 ± 1.5.
For QLDGLGFLYVTGHIKEILITAGGE [ACSBG2], the protein stability index reads like this: (treatment: DMSO) 2.66 ± 0.54; (treatment: MLN4924 1 uM, 8 h) 2.44 ± 0.64.
On the same counts, the results for TLALQGTQGQEKMMMMGPKEEEQS [ZNF232] are 5.29 ± 0.31 and 5.43 ± 0.14.
Turning to DRTAIRSDTTHLVTLGGVLRQQLV [KLHL13], the protein stability index is, setting by setting: (treatment: DMSO) 2.61 ± 0.28; (treatment: MLN4924 1 uM, 8 h) 2.73 ± 0.22.
On the same counts, the results for KGDRGLPLEGSAKGKVQAELSQPL [RBBP5] are 4.82 ± 0.33 and 4.75 ± 0.11.
On the same counts, the results for SMPVRLLGHSPVLRNITNSQAPDG [CDC25B] are 3.23 ± 0.22 and 3.4 ± 0.24.
On the same counts, the results for HSGFEDELSEVLENQSSQAELKEA [CHGA] are 5.5 ± 0.29 and 5.27 ± 0.33.
Consider SAARVVLTSLLACLPAGPRVYFLK [DUSP5], for which the protein stability index runs as follows: (treatment: DMSO) 2.43 ± 0.23; (treatment: MLN4924 1 uM, 8 h) 2.41 ± 0.12.
For YIMAFDIKSEDMLKILKPSIPLER [FBXO33], in that order: 2.34 ± 0.44 and 2.67 ± 0.4.
On the same counts, the results for SYCPHCGEESSKAKEVTIAKADTT [EHMT1] are 4.27 ± 0.19 and 4.58 ± 0.19.
On the same counts, the results for CCQWLKPKMRSKEQILELLVLEQF [ZNF449] are 2.46 ± 0.51 and 2.46 ± 0.52.
Regarding YNNRGQIKYFRVDFYEAMDDYTSA [TTC32], the protein stability index runs as follows: (treatment: DMSO) 2.15 ± 0.29; (treatment: MLN4924 1 uM, 8 h) 2.35 ± 0.24.
For ETVSPLPSSMDLLIQDSPDSSTSP [NANOGP8], in that order: 5.45 ± 0.37 and 5.45 ± 0.25.
On the same counts, the results for DFRVKYETELAMRQSVENDIHGLR [KRT18] are 3.56 ± 0.2 and 3.68 ± 0.1.
On the same counts, the results for EADGSTNNGIFQINSRRWCSNLTP [SPACA3] are 3.43 ± 0.33 and 3.66 ± 0.32.
With MLGKYNTPVSYRMAKTLVFSKVKT [ACSBG2], the protein stability index is, setting by setting: (treatment: DMSO) 2.46 ± 0.31; (treatment: MLN4924 1 uM, 8 h) 2.35 ± 0.23.
On the same counts, the results for SYRETRRKEGIVKLKPHEEPLRSE [PTPN9] are 4.66 ± 0.079 and 4.73 ± 0.3.
On the same counts, the results for SGVCLFAVFIALLPILGHRDYKIQ [PTGFR] are 3.6 ± 0.45 and 3.37 ± 0.12.
For the sequence DSKSGGSGSESDHTTRSSLRGPRE [DVL3], the protein stability index is 5.31 ± 0.27 (treatment: DMSO) and 5.19 ± 0.22 (treatment: MLN4924 1 uM, 8 h).
For QERQGPAKPEVLSIQWPGKRSSRR [NECAB1], in that order: 4.88 ± 0.21 and 4.93 ± 0.13.
On the same counts, the results for PSTASLLLCPGGLDHKLNLRGKAW [TIAF1] are 2.69 ± 0.24 and 2.87 ± 0.24.
On the same counts, the results for VPVHSFASLNIKTTVPEVEPPQDS [PRPH] are 4.97 ± 0.2 and 4.99 ± 0.073.
In turn, ASLENSLEETKGRYCMQLSQIQGL [KRT16] gave a protein stability index (treatment: DMSO) of 3.3 ± 0.39 and a protein stability index (treatment: MLN4924 1 uM, 8 h) of 3.17 ± 0.25.
On the same counts, the results for QNAALRGELSQARGQEPARADQLC [PRPH] are 5.12 ± 0.23 and 5.02 ± 0.37.
Turning to NNFREYNLHRVAAHELGHSLGLSH [MMP1], the protein stability index (treatment: DMSO) worked out at 2.85 ± 0.22 and the protein stability index (treatment: MLN4924 1 uM, 8 h) was found to be 3.01 ± 0.13.
For ESHATLTLAQAHFNNGEYAEAEAL [TTC32], in that order: 5.19 ± 0.2 and 5.04 ± 0.15.
On the same counts, the results for AFYDVTGGMSHLHTFRATFQEPLY [TRIM14] are 2.31 ± 0.25 and 2.41 ± 0.5.
For SSSKWQRRDYLLLVMEGTDDGRLL [APMAP], in that order: 2.88 ± 0.43 and 2.32 ± 0.39.
Consider GSRHPTLVLPLVPELLSTHPFFDT [INTS4], for which the protein stability index stood at 2.23 ± 0.28 (treatment: DMSO) and 2.31 ± 0.078 (treatment: MLN4924 1 uM, 8 h).
For EILGCPLPDPNNYYHRRNEMTTTD [CPXM2], in that order: 3.24 ± 0.21 and 3.54 ± 0.56.
For SGREHNFTRPNEKGEYEVAEGIGS [BTBD10], in that order: 5.11 ± 0.25 and 4.99 ± 0.33.
As for VLMAVSVHSERKLLPLVTLCDGNP [SCNN1D], the protein stability index by setting is: (treatment: DMSO) 2.4 ± 0.38; (treatment: MLN4924 1 uM, 8 h) 2.32 ± 0.47.
For ATKFKQLYRSRMNSLEMTPAVRQR [HMOX1], in that order: 3.32 ± 0.21 and 3.56 ± 0.27.
On to LTPGFSDNAIMLFSPDFTLRNTLK [FAN1], for which the protein stability index (treatment: DMSO) was determined as 2.4 ± 0.3 and the protein stability index (treatment: MLN4924 1 uM, 8 h) came out at 2.65 ± 0.54.
For IHKASATIIEPAGESDNPLRFTSG [INTS4], in that order: 4.03 ± 0.33 and 4.15 ± 0.25.
On the same counts, the results for LSEKEINAREESLVEELSPASEKK [BCL2L13] are 5.42 ± 0.46 and 5.58 ± 0.15.
